# B1: IpgC (natural protein)
# chain: MSLNITENESISTAVIDAINSGATLKDINAIPDDMMDDIYSYAYDFYNKGRIEEAEVFFRFLCIYDFYNVDYIMGLAAIYQIKEQFQQAADLYAVAFALGKNDYTPVFHTGQCQLRLKAPLKAKECFELVIQHSNDEKLKIKAQSYLDAIQDIKE
# notes: also called translocator-specific chaperone from Shigella
# Target: the molecule itself
# Test: SEC; Superdex 200 10/300 GL, 10 mM Tris-HCl pH 7.5, 150 mM NaCl, 0.5 mL/min, 4°C; equivalent molar concentrations, incubated 15 minutes; molecular weight from BioRad gel-filtration standards
protein,measurement,value
B1,stoichiometry N,2

# Reference: publication PMC4222845 (PLoS Pathogens, 2014)
